For 6 molecules, EC50 results are on record in patent publication US20100260668A1 (published 2010).

What is called EC50 is the midpoint of the concentration-response curve.

For assay [1], the target named is T1, CD40/FC (CD40 ECD/FC chimera-His tag) (UniProt P25942 21-193, limits assumed).
T1 construct: extracellular domain; Bought reagent
Kind of assay: Direct Bind ELISA, antigen on plate; N-terminal VD. A general note: ELISA stands for enzyme-linked immunosorbent assay.
Description: (§1) Enzyme Linked Immunosorbent Assays to screen for antibodies that bind a desired target antigen were performed as follows. […] Plates were washed four times with PBS containing 0.02% Tween 20. Plates were blocked by the addition of 300 μL/well blocking solution (non-fat dry milk powder, various retail suppliers, diluted to 2% in PBS) for ½ hour at room temperature. Plates were washed four times after blocking with PBS containing 0.02% Tween 20.
(§2) Alternatively, one hundred microliters per well of 10 μg/ml of Histidine (His) tagged desired target antigen (R&D Systems, Minneapolis, Minn.) was added to ELISA plates coated with monoclonal mouse anti-polyHistidine antibody as described above and incubated for 1 hour at room temperature. Wells were washed four times with PBS containing 0.02% Tween 20.
(§3) One hundred microliters of antibody or DVD-Ig preparations diluted in blocking solution as described above was added to the desired target antigen plate or desired target antigen/FC fusion plate or the anti-polyHistidine antibody/His tagged desired target antigen plate prepared as described above and incubated for 1 hour at room temperature. Wells are washed four times with PBS containing 0.02% Tween 20.

Assay [2] concerns the target T1, CD40/FC (CD40 ECD/FC chimera-His tag). Kind of assay: Direct Bind ELISA, antigen on plate.
The target is the same in assay [3]. Nature of the assay: Direct Bind ELISA, antigen on plate; C-terminal VD.
In assay [4] the target is CD22/FC (Siglec-2 ECD/FC chimera) (UniProt P20273 20-687). Kind of assay: Direct Bind ELISA, antigen on plate.
For a further assay, the target named is T2, CD-19 (UniProt P15391 20-291, limits assumed).
T2 construct: construct unknown
T2 sequence (looked up): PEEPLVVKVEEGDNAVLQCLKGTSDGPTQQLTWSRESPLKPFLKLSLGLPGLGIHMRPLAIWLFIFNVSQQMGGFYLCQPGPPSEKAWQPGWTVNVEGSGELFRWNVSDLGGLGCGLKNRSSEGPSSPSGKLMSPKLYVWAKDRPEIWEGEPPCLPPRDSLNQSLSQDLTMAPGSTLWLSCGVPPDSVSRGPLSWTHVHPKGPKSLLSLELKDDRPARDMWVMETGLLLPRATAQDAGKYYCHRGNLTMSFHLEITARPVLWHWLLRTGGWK
Nature of the assay: Direct Bind ELISA, antigen on plate; N-terminal VD.

The target in assay [5] is CD80/FC (B7-1 ECD/FC chimera) (UniProt P33681 35-242). Kind of assay: Direct Bind ELISA, antigen on plate.
CD80/FC (B7-1 ECD/FC chimera), sequence (P33681 35-242, change not shown): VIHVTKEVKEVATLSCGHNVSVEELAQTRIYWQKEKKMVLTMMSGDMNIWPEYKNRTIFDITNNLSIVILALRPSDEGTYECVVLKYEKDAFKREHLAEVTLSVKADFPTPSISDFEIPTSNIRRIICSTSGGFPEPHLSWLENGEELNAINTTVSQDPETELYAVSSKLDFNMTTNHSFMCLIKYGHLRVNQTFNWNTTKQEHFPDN

T1 sequence (P25942 21-193 limits assumed, change not shown): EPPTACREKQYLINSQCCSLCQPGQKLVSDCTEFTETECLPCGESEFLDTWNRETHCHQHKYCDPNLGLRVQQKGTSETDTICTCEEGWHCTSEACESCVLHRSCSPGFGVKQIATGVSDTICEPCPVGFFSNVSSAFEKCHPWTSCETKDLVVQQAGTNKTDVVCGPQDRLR
Description for CD-19: as §1, §2, §3

B1: DVD010 (CD-40 and CD-20 DVD-Ig) (bispecific antibody, IgG1)
VH: QVQLVESGGGVVQPGRSLRLSCAASGFTFSSYGMHWVRQAPGKGLEWVAVISYEESNRYHADSVKGRFTISRDNSKITLYLQMNSLRTEDTAVYYCARDGGIAAPGPDYWGQGTLVTVSSASTKGPQVQLQQPGAELVKPGASVKMSCKASGYTFTSYNMHWVKQTPGRGLEWIGAIYPGNGDTSYNQKFKGKATLTADKSSSTAYMQLSSLTSEDSAVYYCARSTYYGGDWYFNVWGAGTTVTVSA
VL: DIVMTQSPLSLTVTPGEPASISCRSSQSLLYSNGYNYLDWYLQKPGQSPQVLISLGSNRASGVPDRFSGSGSGTDFTLKISRVEAEDVGVYYCMQARQTPFTFGPGTKVDIRRTVAAPQIVLSQSPAILSPSPGEKVTMTCRASSSVSYIHWFQQKPGSSPKPWIYATSNLASGVPVRFSGSGSGTSYSLTISRVEAEDAATYYCQQWTSNPPTFGGGTKLEIKR
notes: Outer AB009, inner AB001; HC vector V1 (wild-type hIgG1 constant), LC vector V2 (kappa constant); also called DVD010H; DVD010L
In turn, B1 displayed an EC50 in assay [1] of 0.82 nM.

B2: AB009 (anti-CD-40 parent antibody) (antibody, IgG1, V domains shown)
VH: QVQLVESGGGVVQPGRSLRLSCAASGFTFSSYGMHWVRQAPGKGLEWVAVISYEESNRYHADSVKGRFTISRDNSKITLYLQMNSLRTEDTAVYYCARDGGIAAPGPDYWGQGTLVTVSS
VL: DIVMTQSPLSLTVTPGEPASISCRSSQSLLYSNGYNYLDWYLQKPGQSPQVLISLGSNRASGVPDRFSGSGSGTDFTLKISRVEAEDVGVYYCMQARQTPFTFGPGTKVDIRR
notes: HC vector V1 (wild-type hIgG1 constant), LC vector V2 (kappa constant); also called AB009VH; AB009VL
In the case of B2, the EC50 in assay [2] turned out to be 0.99 nM.

B3: DVD009 (CD-20 and CD-40 DVD-Ig) (bispecific antibody, IgG1)
VH: QVQLQQPGAELVKPGASVKMSCKASGYTFTSYNMHWVKQTPGRGLEWIGAIYPGNGDTSYNQKFKGKATLTADKSSSTAYMQLSSLTSEDSAVYYCARSTYYGGDWYFNVWGAGTTVTVSAASTKGPQVQLVESGGGVVQPGRSLRLSCAASGFTFSSYGMHWVRQAPGKGLEWVAVISYEESNRYHADSVKGRFTISRDNSKITLYLQMNSLRTEDTAVYYCARDGGIAAPGPDYWGQGTLVTVSS
VL: QIVLSQSPAILSPSPGEKVTMTCRASSSVSYIHWFQQKPGSSPKPWIYATSNLASGVPVRFSGSGSGTSYSLTISRVEAEDAATYYCQQWTSNPPTFGGGTKLEIKRTVAAPDIVMTQSPLSLTVTPGEPASISCRSSQSLLYSNGYNYLDWYLQKPGQSPQVLISLGSNRASGVPDRFSGSGSGTDFTLKISRVEAEDVGVYYCMQARQTPFTFGPGTKVDIRR
notes: Outer AB001, inner AB009; HC vector V1 (wild-type hIgG1 constant), LC vector V2 (kappa constant); also called DVD009H; DVD009L
B3 came in with an EC50 in assay [3] of 3.55 nM.

B4: AB008 (anti-CD-22 parent antibody) (antibody, IgG1, V domains shown)
VH: QVQLVQSGAEVKKPGSSVKVSCKASGYTFTSYWLHWVRQAPGQGLEWIGYINPRNDYTEYNQNFKDKATITADESTNTAYMELSSLRSEDTAFYFCARRDITTFYWGQGTTVTVSS
VL: DIQLTQSPSSLSASVGDRVTMSCKSSQSVLYSANHKNYLAWYQQKPGKAPKLLIYWASTRESGVPSRFSGSGSGTDFTFTISSLQPEDIATYYCHQYLSSWTFGGGTKLEIKR
notes: HC vector V1 (wild-type hIgG1 constant), LC vector V2 (kappa constant); also called AB008VH; AB008VL
In the case of B4, it took 3.44 nM to reach a half-maximal effect in assay [4] (EC50).

B5: DVD002 (CD-19 and CD-20 DVD-Ig) (bispecific antibody, IgG1)
VH: QVQLQQSGAELVRPGSSVKISCKASGYAFSSYWMNWVKQRPGQGLEWIGQIWPGDGDTNYNGKFKGKATLTADESSSTAYMQLSSLASEDSAVYFCARRETTTVGRYYYAMDYWGQGTSVTVSSASTKGPQVQLQQPGAELVKPGASVKMSCKASGYTFTSYNMHWVKQTPGRGLEWIGAIYPGNGDTSYNQKFKGKATLTADKSSSTAYMQLSSLTSEDSAVYYCARSTYYGGDWYFNVWGAGTTVTVSA
VL: DILLTQTPASLAVSLGQRATISCKASQSVDYDGDSYLNWYQQIPGQPPKLLIYDASNLVSGIPPRFSGSGSGTDFTLNIHPVEKVDAATYHCQQSTEDPWTFGGGTKLEIKRTVAAPQIVLSQSPAILSPSPGEKVTMTCRASSSVSYIHWFQQKPGSSPKPWIYATSNLASGVPVRFSGSGSGTSYSLTISRVEAEDAATYYCQQWTSNPPTFGGGTKLEIKR
notes: Outer AB006, inner AB001; HC vector V1 (wild-type hIgG1 constant), LC vector V2 (kappa constant); also called DVD002H; DVD002L
B5 showed an EC50 with CD-19 of 0.07 nM.

B6: AB007 (anti-CD-80 parent antibody) (antibody, IgG1, V domains shown)
VH: QVQLQESGPGLVKPSETLSLTCAVSGGSISGGYGWGWIRQPPGKGLEWIGSFYSSSGNTYYNPSLKSQVTISTDTSKNQFSLKLNSMTAADTAVYYCVRDRLFSVVGMVYNNWFDVWGPGVLVTVSS
VL: ESALTQPPSVSGAPGQKVTISCTGSTSNIGGYDLHWYQQLPGTAPKLLIYDINKRPSGISDRFSGSKSGTAASLAITGLQTEDEADYYCQSYDSSLNAQVFGGGTRLTVLG
notes: HC vector V1 (wild-type hIgG1 constant), LC vector V3 (lambda constant); also called AB007VH; AB007VL
In assay [5], B6 yielded an EC50 of 0.77 nM.
